Read-outs that look alike come from different tables or passages of the source.

Holding throughout (assay): ELISA
For orientation: In an ELISA, binding on a coated surface is turned into a signal by an enzyme label.

In assay [1] the target is T1, recombinant human Axl-Fc protein (R and D Systems, cat N° 154-AL) (UniProt P30530 26-451).
The target of assay [2] is T1, recombinant human Axl-Fc protein (R and …). This is another data set of the same source.
Assay [3] has the same target. This is another data set of the same source.

T1 sequence (P30530 26-451 D266N): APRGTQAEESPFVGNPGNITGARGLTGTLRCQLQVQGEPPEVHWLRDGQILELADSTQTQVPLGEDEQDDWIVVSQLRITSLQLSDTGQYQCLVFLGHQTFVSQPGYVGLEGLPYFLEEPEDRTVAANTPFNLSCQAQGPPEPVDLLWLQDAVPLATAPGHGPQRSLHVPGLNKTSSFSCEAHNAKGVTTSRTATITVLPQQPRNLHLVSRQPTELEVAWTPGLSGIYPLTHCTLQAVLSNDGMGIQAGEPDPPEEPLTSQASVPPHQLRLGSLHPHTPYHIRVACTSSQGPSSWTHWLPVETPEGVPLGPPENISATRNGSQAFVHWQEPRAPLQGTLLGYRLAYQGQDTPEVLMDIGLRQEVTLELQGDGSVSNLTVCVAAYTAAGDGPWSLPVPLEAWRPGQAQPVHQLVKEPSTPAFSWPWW

B1: 110D7 anti-Axl monoclonal antibody (antibody, V domains shown)
VH: EVKLVESGGGLVQPGGSLKLSCATSGFTFSDYYMYWVRQTPEKRLEWVAYISNGGGSTYYPDTVKGRFTMSRDNAKNTLYLQMSRLKSEDTAMYYCARLSFYAMDYWGQGTSVTVSS
VL: DIVMTQSHKFMSTSVGDRVSITCKASQDVTTAVAWYQQKPGQSPKLLIYWASTRHTGVPDRFTGSGSGTDYTLTISSVQAEDLALYYCQQHYRIPFTFGSGTKLEIK
Turning to B1, in assay [1], the EC50 (commonly the concentration needed to bring the measured effect to its halfway point) worked out at 1.35 nM.

B2: 1003A2 anti-Axl monoclonal antibody (antibody, V domains shown)
VH: EVKLVESGGGLVQPGGSLKLSCAASGFTFNSYSMSWVRQTPEKRLEWVAYISNGGGRTYYPDTIKGRFTLSRDNDRNTLYLQMSSLKSEDTAMYYCARGTTESYYALDYWGQGTSVTVSS
VL: DIVMTQSHKFMSTSLGDRISITCKASQDVITAVAWYQQKPGQSPKLLIYWASTRHTGVPDRFTGSGSGTDYNLTISSVQAEDLALYYCQQHFSTPLTFGAGTKLELK
As to B2, the EC50 in assay [2] worked out at 2.35 nM.

B3: 1024G11 anti-Axl monoclonal antibody (antibody, V domains shown)
VH: EVKLVESGGGLVQPGGSLNLSCAASGFTFSSYSMSWVRQTPEKRLEWVAFISNGGGRTYYPDTVKGRFTFSRDNARNTLYLQMSSLNSEDTAMYFCARGTTESYYAMDYWGQGTSVTVSS
VL: DIVMTQSHKFMSTSVGDRVSITCKASQDVITAVAWYQQKPGQSPKLLIYWASTRHTGVPDRFTGSGSGTDYTLTISSVQAEDLALYFCQQHLSTPLTFGAGTKLELK
In the case of B3, in assay [3], the concentration giving a half-maximal response (EC50) came out at 3.57 nM.
